How the values were obtained:
[1] = target: T1, cynomolgus soluble urokinase plasminogen activator receptor (cynomolgus suPAR) (cynomolgus, UniProt Q9GK78 23-303, limits assumed); experiment: BLI (Octet) off-rate screen of scFv
T1 construct: also called cynomolgus uPAR; cynoPLAUR-His

[2] = target: T2, human soluble urokinase plasminogen activator receptor (hsuPAR) (human, UniProt Q03405 23-303, limits assumed); experiment: BLI (Octet) off-rate screen of scFv
T2 construct: also called human suPAR; rhuPAR-His

[3] = target: T3, human soluble urokinase plasminogen activator receptor (suPAR) (human, UniProt Q03405 23-303, limits assumed); experiment: BLI (Octet) off-rate screen of scFv clones
T3 construct: Column head says only 'human'; also called hsuPAR; human suPAR

[4] = target: T4, cynomolgus soluble urokinase plasminogen activator receptor (suPAR) (cynomolgus, UniProt Q9GK78 23-303, limits assumed); experiment: BLI (Octet) off-rate screen of scFv clones
T4 construct: Column head says only 'cynomologus'; also called cynomolgus suPAR; cynomolgus uPAR
T4 sequence (Q9GK78 23-303 limits assumed): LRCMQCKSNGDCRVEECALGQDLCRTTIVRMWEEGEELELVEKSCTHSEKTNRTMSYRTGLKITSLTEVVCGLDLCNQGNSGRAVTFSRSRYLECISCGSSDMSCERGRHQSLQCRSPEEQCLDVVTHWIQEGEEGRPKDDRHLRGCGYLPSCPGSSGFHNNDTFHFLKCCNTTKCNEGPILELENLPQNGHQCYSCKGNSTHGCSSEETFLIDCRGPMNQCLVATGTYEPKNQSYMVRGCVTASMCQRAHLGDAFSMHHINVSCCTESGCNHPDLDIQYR

T2 sequence (Q03405 23-303 limits assumed): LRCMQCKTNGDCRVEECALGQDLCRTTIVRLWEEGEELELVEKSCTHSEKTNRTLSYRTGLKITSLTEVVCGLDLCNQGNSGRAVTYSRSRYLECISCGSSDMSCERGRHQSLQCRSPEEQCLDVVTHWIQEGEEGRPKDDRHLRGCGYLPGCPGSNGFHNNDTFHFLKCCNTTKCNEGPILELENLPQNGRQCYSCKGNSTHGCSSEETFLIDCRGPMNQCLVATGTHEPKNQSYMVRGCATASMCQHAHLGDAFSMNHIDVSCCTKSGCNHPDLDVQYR
T3 sequence (Q03405 23-303 limits assumed): as above
T1 sequence (Q9GK78 23-303 limits assumed): as the sequence (Q9GK78 23-303 limits assumed) above

Binder	koff [1] [s⁻¹]	koff [2] [s⁻¹]	koff [3] [s⁻¹]	koff [4] [s⁻¹]
suPAR_DB02_C02 (scFv, V domains shown, Screened as scFv) VH: QVQLVQSGAEVKKPGASVKVSCKASGYTFKSYYMHWVRQAPGQGLEWMGWIDHENGNTIYDQKFQGRVTMTRDTSTSTVYMELSSLRSEDTAVYYCASGYDVDWFVYWGQGTLVTVSS VL: DIQMTQSPSSLSASVGDRVTITCSARSSVSYMYWYQQKPGKAPKLLIYRTSNLASGVPSRFSGSGSGTDFTLTISSLQPEDFATYYCQQYHSYPPTFGGGTKVEIK	3.58e-05	0.00429		
suPAR_DB05_B12 (scFv, V domains shown, Screened as scFv) VH: QVQLVQSGAEVKKPGASVKVSCKASGYTFTNYYMHWVRQAPGQGLEWMGWIDPENGNTIYAQKFQGRVTMTRDTSTSTVYMELSSLRSEDTAVYYCARGYDVDWFVYWGQGTLVTVSS VL: DIQMTQSPSSLSASVGDRVTITCSARQSVSYMYWYQQKPGKAPKLLIYRTSNLASGVPSRFSGSGSGTDFTLTISSLQPEDFATYYCQQYHSYPPTFGGGTKVEIK			0.00472	0.000383
suPAR_DB05_A08 (scFv, V domains shown, Screened as scFv) VH: QVQLVQSGAEVKKPGASVKVSCKASGYTFTNYYMHWVRQAPGQGLEWMGWIDSNSGGTNYAQKFQGRVTMTRDTSTSTVYMELSSLRSEDTAVYYCARGYDVDWFVYWGQGTLVTVSS VL: DIQMTQSPSSLSASVGDRVTITCSARSSVSYMYWYQQKPGKAPKLLIYRTSNLASGVPSRFSGSGSGTDFTLTISSLQPEDFATYYCQQYHSYPPTFGGGTKVEIK			0.00307	9.8e-05
suPAR_DB05_A05 (scFv, V domains shown, Screened as scFv) VH: QVQLVQSGAEVKKPGASVKVSCKASGYTFTNYYMHWVRQAPGQGLEWMGWIDPSGGSTSYAQKFQGRVTMTRDTSTSTVYMELSSLRSEDTAVYYCARGYDVDWFVYWGQGTLVTVSS VL: DIQMTQSPSSLSASVGDRVTITCRARQSVSYMYWYQQKPGKAPKLLIYRTSNLASGVPSRFSGSGSGTDFTLTISSLQPEDFATYYCQQYHSYPPTFGGGTKVEIK			0.00553	0.000639
suPAR_DB02_C04 (scFv, V domains shown, Screened as scFv) VH: QVQLVQSGAEVKKPGASVKVSCKASGFNIKDYYIHWVRQAPGQGLEWMGWIDHEGGSTSYDQKFQGRVTMTRDTSTSTVYMELSSLRSEDTAVYYCARGYDVDWFVYWGQGTLVTVSS VL: DIQMTQSPSSLSASVGDRVTITCSARSSVSYMYWYQQKPGKAPKLLIYRTSNLASGVPSRFSGSGSGTDFTLTISSLQPEDFATYYCQQYHSYPPTFGGGTKVEIK	0.00132	0.00128		
suPAR_DB05_B01 (scFv, V domains shown, Screened as scFv) VH: QVQLVQSGAEVKKPGASVKVSCKASGYPFTSYYMHWVRQAPGQGLEWMGWIDHENGNTIYDQKFQGRVTMTRDTSTSTVYMELSSLRSEDTAVYYCARGYDVDWFVYWGQGTLVTVSS VL: DIQMTQSPSSLSASVGDRVTITCSASSSVSYMYWYQQKPGKAPKLLIYRTSNLASGVPSRFSGSGSGTDFTLTISSLQPEDFATYYCQQYHSYPPTFGGGTKVEIK			0.00356	0.000232
suPAR_DB04_H07 (scFv, V domains shown, Screened as scFv) VH: QVQLVQSGAEVKKPGASVKVSCKASGYTFTSYYMHWVRQAPGQGLEWMGWIDHENGNTSYDQKFQGRVTMTRDTSTSTVYMELSSLRSEDTAVYYCARGYDVDWFVYWGQGTLVTVSS VL: DIQMTQSPSSLSASVGDRVTITCRARSSVSYMYWYQQKPGKAPKLLIYRTSNLASGVPSRFSGSGSGTDFTLTISSLQPEDFATYYCQQYHSYPPTFGGGTKVEIK			0.00511	0.000249
suPAR_DB04_H03 (scFv, V domains shown, Screened as scFv) VH: QVQLVQSGAEVKKPGASVKVSCKASGYTFTGNYLHWVRQAPGQGLEWMGWIDHSNGSTIYDQKFQGRVTMTRDTSTSTVYMELSSLRSEDTAVYYCARGSDVDWFVYWGQGTLVTVSS VL: DIQMTQSPSSLSASVGDRVTITCSASSSVSYMYWYQQKPGKAPKLLIYRTSNLASGVPSRFSGSGSGTDFTLTISSLQPEDFATYYCQQYHSYPPTFGGGTKVEIK			0.00134	0.000226
suPAR_DB02_C05 (scFv, V domains shown, Screened as scFv) VH: QVQLVQSGAEVKKPGASVKVSCKASGGTFSSYYMHWVRQAPGQGLEWMGWIDHENGNTIYDQKFQGRVTMTRDTSTSTVYMELSSLRSEDTAVYYCARGYDVDWFVYWGQGTLVTVSS VL: DIQMTQSPSSLSASVGDRVTITCSARSSVSYMYWYQQKPGKAPKLLIYRTSNLASGVPSRFSGSGSGTDFTLTISSLQPEDFATYYCQQYHSYPPTFGGGTKVEIK	0.000285	0.00504		
suPAR_DB04_H09 (scFv, V domains shown, Screened as scFv) VH: QVQLVQSGAEVKKPGASVKVSCKASGGTFSGYYMHWVRQAPGQGLEWVGWITPDSGATAYAQKFQGRVTMTRDTSTSTVYMELSSLRSEDTAVYYCARGYDVDWFVYWGQGTLVTVSS VL: DIQMTQSPSSLSASVGDRVTITCSARQSVSYMYWYQQKPGKAPKLLIYRTSNLASGVPSRFSGSGSGTDFTLTISSLQPEDFATYYCQQYHSYPPTFGGGTKVEIK			0.00475	8.8e-05

The next lines start with the values.

koff [1] [s⁻¹]	koff [2] [s⁻¹]	koff [3] [s⁻¹]	koff [4] [s⁻¹]	Binder
0.00038	0.00281			suPAR_DB01_H08 (scFv, V domains shown, Screened as scFv) VH: QVQLVQSGAEVKKPGASVKVSCKASGFNIKDYYIHWVRQAPGQGLEWMGWIDPNGGGTQYAQKFQGRVTMTRDTSTSTVYMELSSLRSEDTAVYYCARGYDVDWFVYWGQGTLVTVSS VL: DIQMTQSPSSLSASVGDRVTITCRASSSVSYMYWYQQKPGKAPKLLIYRTSNLQSGVPSRFSGSGSGTDFTLTISSLQPEDFATYYCQQYHSYPPTFGGGTKVEIK
		0.00495	0.00029	suPAR_DB05_A07 (scFv, V domains shown, Screened as scFv) VH: QVQLVQSGAEVKKPGASVKVSCKASGYTFTNYYMQWVRQAPGQGLEWMGWIDHENGNTIYAQKFQGRVTMTRDTSTSTVYMELSSLRSEDTAVYYCARGYDVDWFVYWGQGTLVTVSS VL: DIQMTQSPSSLSASVGDRVTITCSARQSVSYMYWYQQKPGKAPKLLIYRTSNLASGVPSRFSGSGSGTDFTLTISSLQPEDFATYYCQQYHSYPPTFGGGTKVEIK
		0.0034	5.42e-07	suPAR_DB04_H08 (scFv, V domains shown, Screened as scFv) VH: QVQLVQSGAEVKKPGASVKVSCKASGYTFSDYYIHWVRQAPGQGLEWMGWISPKSGVTNYAQKFQGRVTMTRDTSTSTVYMELSSLRSEDTAVYYCARGYDVDWFVYWGQGTLVTVSS VL: DIQMTQSPSSLSASVGDRVTITCSASQSVSYMYWYQQKPGKAPKLLIYRTSNLASGVPSRFSGSGSGTDFTLTISSLQPEDFATYYCQQYHSYPPTFGGGTKVEIK
		0.00352	0.000277	suPAR_DB05_A06 (scFv, V domains shown, Screened as scFv) VH: QVQLVQSGAEVKKPGASVKVSCKASGYTFTSHYVHWVRQAPGQGLEWMGWIDHENGNTIYDQKFQGRVTMTRDTSTSTVYMELSSLRSEDTAVYYCARGYDVDWFVYWGQGTLVTVSS VL: DIQMTQSPSSLSASVGDRVTITCSARSSVSYMYWYQQKPGKAPKLLIYRTSNLASGVPSRFSGSGSGTDFTLTISSLQPEDFATYYCQQYHSYPPTFGGGTKVEIK
		0.00565	0.000419	suPAR_DB05_B02 (scFv, V domains shown, Screened as scFv) VH: QVQLVQSGAEVKKPGASVKVSCKASGYTIKDYYIHWVRQAPGQGLEWMGWIDPENGNTIYAQKFQGRVTMTRDTSTSTVYMELSSLRSEDTAVYYCARGYDVDWFVYWGQGTLVTVSS VL: DIQMTQSPSSLSASVGDRVTITCSARSSVSYMYWYQQKPGKAPKLLIYRTSNLASGVPSRFSGSGSGTDFTLTISSLQPEDFATYYCQQYHSYPPTFGGGTKVEIK
		0.00926	0.000289	suPAR_DB04_H06 (scFv, V domains shown, Screened as scFv) VH: QVQLVQSGAEVKKPGASVKVSCKASGYTFTNYYVHWVRQAPGQGLEWMGWIDHENGNTSYAQKFQGRVTMTRDTSTSTVYMELSSLRSEDTAVYYCARGYDVDWFVYWGQGTLVTVSS VL: DIQMTQSPSSLSASVGDRVTITCSARSSVSYMYWYQQKPGKAPKLLIYRTSNLQSGVPSRFSGSGSGTDFTLTISSLQPEDFATYYCQQYHSYPPTFGGGTKVEIK
		0.00541	0.000462	suPAR_DB05_A10 (scFv, V domains shown, Screened as scFv) VH: QVQLVQSGAEVKKPGASVKVSCKASGYTFTNYYIHWVRQAPGQGLEWMGWIDPSNGNTIYDQKFQGRVTMTRDTSTSTVYMELSSLRSEDTAVYYCARGYDVDWFVYWGQGTLVTVSS VL: DIQMTQSPSSLSASVGDRVTITCSARSSVSYMYWYQQKPGKAPKLLIYRTSNLASGVPSRFSGSGSGTDFTLTISSLQPEDFATYYCQQYHSYPPTFGGGTKVEIK
		0.00584	0.000182	suPAR_DB04_H05 (scFv, V domains shown, Screened as scFv) VH: QVQLVQSGAEVKKPGASVKVSCKASGHTLNSYYMHWVRQAPGQGLEWMGWIDPEGGNTIYAQKFQGRVTMTRDTSTSTVYMELSSLRSEDTAVYYCARGYDVDWFVYWGQGTLVTVSS VL: DIQMTQSPSSLSASVGDRVTITCSARSSVSYMYWYQQKPGKAPKLLIYRTSNLASGVPSRFSGSGSGTDFTLTISSLQPEDFATYYCQQYHSYPPTFGGGTKVEIK
		0.00354	0.000323	suPAR_DB04_H10 (scFv, V domains shown, Screened as scFv) VH: QVQLVQSGAEVKKPGASVKVSCKASGYTFTSYYMHWVRQAPGQGLEWMGWISPDSGGTNYAQKFQGRVTMTRDTSTSTVYMELSSLRSEDTAVYYCARGYDVDWFVYWGQGTLVTVSS VL: DIQMTQSPSSLSASVGDRVTITCRARSSVSYMYWYQQKPGKAPKLLIYRTSNLASGVPSRFSGSGSGTDFTLTISSLQPEDFATYYCQQYHSYPPTFGGGTKVEIK
		0.0018	0.000311	suPAR_DB05_A11 (scFv, V domains shown, Screened as scFv) VH: QVQLVQSGAEVKKPGASVKVSCKASGYTFTGYYMHWVRQAPGQGLEWMGWIDPNSGGTNYAQKFQGRVTMTRDTSTSTVYMELSSLRSEDTAVYYCARGYDVDWFVYWGQGTLVTVSS VL: DIQMTQSPSSLSASVGDRVTITCSARSSVSYMYWYQQKPGKAPKLLIYRTSNLASGVPSRFSGSGSGTDFTLTISSLQPEDFATYYCQQYHSYPPTFGGGTKVEIK
